Tests used:
Assay in all cases: ITC
[1] = molecular target: B-Myb negative regulatory domain, C-terminal half, amino acids 510-600 (NRD^510-600) (human) (UniProt P10244)
[2] = molecular target: NRD^510-600 T538A, not phosphorylated (NRD^T538A) (human) (UniProt P10244)
[3] = molecular target: NRD^510-600 S577A, not phosphorylated (NRD^S577A) (human) (UniProt P10244)
Chain of NRD^510-600 S577A, not phosphorylated (NRD^S577A) (human) (P10244 510-600 S577A): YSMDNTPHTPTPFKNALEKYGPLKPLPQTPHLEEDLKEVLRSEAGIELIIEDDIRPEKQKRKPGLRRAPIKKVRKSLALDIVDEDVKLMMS

Chain of B-Myb negative regulatory domain, C-terminal half, amino acids 510-600 (NRD^510-600) (human) (P10244 510-600): as the sequence (P10244 510-600 S577A) above, with A68S counted along it
Chain of NRD^510-600 T538A, not phosphorylated (NRD^T538A) (human) (P10244 510-600 T538A): as the sequence (P10244 510-600 S577A) above, with T29A, A68S counted along it

B-Myb DNA binding domain (B-Myb^34-183) (from UniProt P10244-1 34-183) (domain or fragment)
Kd [1]: 4.9 µM | Kd [2]: 6.5 µM | Kd [3]: 3.2 µM

Source: publication doi:10.1101/2022.06.13.495963
